Test results: US11898181B2, “Genetically modified isopropylmalate isomerase enzyme complexes and processes to prepare elongated 2-ketoacids and C5-C10 compounds therewith” (Dow Global Technologies LLC, priority 2017, dated 2022)
Changes are numbered by the printed parent chain. In names and notes the source's numbering stands.

What was measured:
Assay type in all cases: biochemical, E. coli
[1] = substrate: CCCCCCC(O)(CC(=O)O)C(=O)O; experiment: Kinetic analysis of LeuCD (LeuB-coupled HTP assay), Variant 6; conditions: other: 2-HM 0-1.6 mM, pH 8, room temperature, 30 min
[2] = substrate: CCCCC(O)(CC(=O)O)C(=O)O; experiment: as above; conditions: other: 2-BM 0-5 mM, pH 8, room temperature, 30 min
[3] = substrate: CCCCCCC(O)(CC(=O)O)C(=O)O; experiment: Kinetic analysis of LeuCD (LeuB-coupled HTP assay), Variant 61; conditions: other: 2-HM 0-1.6 mM, pH 8, room temperature, 30 min
[4] = substrate: CCCCC(O)(CC(=O)O)C(=O)O; experiment: as above; conditions: other: 2-BM 0-5 mM, pH 8, room temperature, 30 min
[5] = substrate: CCCCCCC(O)(CC(=O)O)C(=O)O; experiment: Kinetic analysis of LeuCD (LeuB-coupled HTP assay), Variant 9; conditions: other: 2-HM 0-1.6 mM, pH 8, room temperature, 30 min
[6] = substrate: CCCCC(O)(CC(=O)O)C(=O)O; experiment: as above; conditions: other: 2-BM 0-5 mM, pH 8, room temperature, 30 min
[7] = substrate: CCCCCCC(O)(CC(=O)O)C(=O)O; experiment: Kinetic analysis of LeuCD (LeuB-coupled HTP assay), Variant 59; conditions: other: 2-HM 0-1.6 mM, pH 8, room temperature, 30 min
[8] = substrate: CCCCC(O)(CC(=O)O)C(=O)O; experiment: as above; conditions: other: 2-BM 0-5 mM, pH 8, room temperature, 30 min
[9] = substrate: CCCCCCC(O)(CC(=O)O)C(=O)O; experiment: Kinetic analysis of LeuCD (LeuB-coupled HTP assay), Variant 3 (wild type); conditions: other: 2-HM 0-1.6 mM, pH 8, room temperature, 30 min
[10] = substrate: CCCCC(O)(CC(=O)O)C(=O)O; experiment: as above; conditions: other: 2-BM 0-5 mM, pH 8, room temperature, 30 min
[11] = substrate: CC(C)[C@@](O)(CC(=O)O)C(=O)O; experiment: as above; conditions: other: 2-IPM 0-0.625 mM, pH 8, room temperature, 30 min
[12] = substrate: CCCCCCC(O)(CC(=O)O)C(=O)O; experiment: Kinetic analysis of LeuCD (LeuB-coupled HTP assay), Variant 5; conditions: other: 2-HM 0-1.6 mM, pH 8, room temperature, 30 min
[13] = substrate: CCCCC(O)(CC(=O)O)C(=O)O; experiment: as above; conditions: other: 2-BM 0-5 mM, pH 8, room temperature, 30 min
[14] = substrate: CCCCCCC(O)(CC(=O)O)C(=O)O; experiment: Kinetic analysis of LeuCD (LeuB-coupled HTP assay), Variant 1; conditions: other: 2-HM 0-1.6 mM, pH 8, room temperature, 30 min
[15] = substrate: CCCCC(O)(CC(=O)O)C(=O)O; experiment: as above; conditions: other: 2-BM 0-5 mM, pH 8, room temperature, 30 min

B1: E. coli isopropylmalate isomerase LeuCD complex, Variant 6 (wt LeuC + L31G-LeuD; parents SEQ ID NO: 1 and SEQ ID NO: 2) (Escherichia coli K-12; L31G) (protein)
chain 1: MGSSHHHHHHSSGMAKTLYEKLFDAHVVYEAENETPLLYIDRHLVHEVTSPQAFDGLRAHGRPVRQPGKTFATMDHNVSTQTKDINACGEMARIQMQELIKNCKEFGVELYDLNHPYQGIVHVMGPEQGVTLPGMTIVCGDSHTATHGAFGALAFGIGTSEVEHVLATQTLKQGRAKTMKIEVQGKAAPGITAKDIVLAIIGKTGSAGGTGHVVEFCGEAIRDLSMEGRMTLCNMAIEMGAKAGLVAPDETTFNYVKGRLHAPKGKDFDDAVAYWKTLQTDEGATFDTVVTLQAEEISPQVTWGTNPGQVISVNDNIPDPASFADPVERASAEKALAYMGLKPGIPLTEVAIDKVFIGSCTNSRIEDLRAAAEIAKGRKVAPGVQALVVPGSGPVKAQAEAEGLDKIFIEAGFEWRLPGCSMCLAMNNDRLNPGERCASTSNRNFEGRQGRGGRTHLVSPAMAAAAAVTGHFADIRNIK
chain 2: MAEKFIKHTGLVVPLDAANVDTDAIIPKQFGQKVTRTGFGAHLFNDWRFLDEKGQQPNPDFVLNFPQYQGASILLARENFGCGSSREHAPWALTDYGFKVVIAPSFADIFYGNSFNNQLLPVKLSDAEVDELFALVKANPGIHFDVDLEAQEVKAGEKTYRFTIDAFRRHCMMNGLDSIGLTLQHDDAIAAYEAKQPAFMN
notes: expression of a His-tagged LeuC having 13 additional amino acids on the N-terminus; made in house; host or cells: E. coli BL21(DE3), whole cell lysate
Protein B1 has a Km [1] of 0.65 ± 0.04 mM, a kcat [1] of 1237 ± 34 h⁻¹ and a kcat/Km [1] of 1917 ± 129 mM⁻¹ h⁻¹. The Km [2] was 8.44 ± 2.4 mM, the kcat [2] was 477 ± 120 h⁻¹ and the kcat/Km [2] was 62 ± 24 mM⁻¹ h⁻¹.

B2: E. coli isopropylmalate isomerase LeuCD complex, Variant 61 (wt LeuC + L31G/H88A-LeuD; parents SEQ ID NO: 1 and SEQ ID NO: 2) (Escherichia coli K-12; H88A/L31G) (protein)
chain 1: B1 chain 1
chain 2: B1 chain 2 with H88A
notes: as for B1
B2 showed a kcat/Km [3] of 22 ± 2 mM⁻¹ h⁻¹ and a kcat/Km [4] of 1.0 ± 0.0 mM⁻¹ h⁻¹.

B3: E. coli isopropylmalate isomerase LeuCD complex, Variant 9 (V35A-LeuC + L31G-LeuD; parents SEQ ID NO: 1 and SEQ ID NO: 2) (Escherichia coli K-12; L31G/V35A) (protein)
chain 1: B1 chain 1 with V48A
chain 2: B1 chain 2
notes: as for B1
With B3 the Km [5] was 0.6 ± 0.034 mM, the kcat [5] was 166 ± 5 h⁻¹ and the kcat/Km [5] was 283 ± 18 mM⁻¹ h⁻¹. For the same protein, the kcat/Km [6] was 2 ± 0.0 mM⁻¹ h⁻¹.

B4: E. coli isopropylmalate isomerase LeuCD complex, Variant 59 (wt LeuC + L31V/H88A-LeuD; parents SEQ ID NO: 1 and SEQ ID NO: 2) (Escherichia coli K-12; H88A/L31V) (protein)
chain 1: B1 chain 1
chain 2: B1 chain 2 with G31V, H88A
notes: as for B1
B4 was tested, and the Km [7] was 3.8 ± 0.9 mM, the kcat [7] was 182 ± 37 h⁻¹ and the kcat/Km [7] was 50 ± 16 mM⁻¹ h⁻¹. The Km [8] was 2.7 ± 0.4 mM, the kcat [8] was 218 ± 22 h⁻¹ and the kcat/Km [8] was 83 ± 14 mM⁻¹ h⁻¹.

B5: E. coli isopropylmalate isomerase LeuCD complex, wild type (Variant 3: Wt LeuC, SEQ ID NO: 1 + Wt LeuD, SEQ ID NO: 2) (Escherichia coli K-12) (protein)
chain 1: B1 chain 1
chain 2: B1 chain 2 with G31L
notes: as for B1
B5 was tested, and the kcat/Km [9] was 4 ± 1 mM⁻¹ h⁻¹, the Km [10] was 1.33 ± 0.14 mM and the kcat [10] was 6120 ± 323 h⁻¹. For the same protein, the kcat/Km [10] was 4646 ± 554 mM⁻¹ h⁻¹, the Km [11] was 0.068 ± 0.01 mM and the kcat [11] was 1526 ± 58 h⁻¹. The kcat/Km [11] was 22366 ± 2375 mM⁻¹ h⁻¹.

B6: E. coli isopropylmalate isomerase LeuCD complex, Variant 5 (wt LeuC + L31A-LeuD; parents SEQ ID NO: 1 and SEQ ID NO: 2) (Escherichia coli K-12; L31A) (protein)
chain 1: B1 chain 1
chain 2: B1 chain 2 with G31A
notes: as for B1
With B6 the Km [12] was 1.4 ± 0.6 mM, the kcat [12] was 35 ± 5 h⁻¹ and the kcat/Km [12] was 29 ± 13 mM⁻¹ h⁻¹. For the same protein, the Km [13] was 1.31 ± 0.14 mM, the kcat [13] was 1400 ± 77 h⁻¹ and the kcat/Km [13] was 1077 ± 129 mM⁻¹ h⁻¹.

B7: E. coli isopropylmalate isomerase LeuCD complex, Variant 1 (V35A-LeuC + wt LeuD; parents SEQ ID NO: 1 and SEQ ID NO: 2) (Escherichia coli K-12; V35A) (protein)
chain 1: B1 chain 1 with V48A
chain 2: B1 chain 2 with G31L
notes: as for B1
B7 gave a Km [14] of 3.35 ± 0.75 mM, a kcat [14] of 314 ± 55 h⁻¹ and a kcat/Km [14] of 98 ± 28 mM⁻¹ h⁻¹. The Km [15] was 3.9 ± 0.7 mM, the kcat [15] was 542 ± 83 h⁻¹ and the kcat/Km [15] was 145 ± 34 mM⁻¹ h⁻¹.
